Source: US20030078373A1

Legend:
barnase = barnase (UniProt P00648); experiment: cell-based or functional assay
cyclophilin A [1] = target: cyclophilin A (UniProt P62937); experiment: refolding chromatography, initially denatured cyclophilin, active peak
cyclophilin A [2] = target: cyclophilin A (UniProt P62937); experiment: refolding chromatography, initially denatured cyclophilin, inactive peak
[3] = target: IGPS (49-252) (indoleglycerol phosphate synthase lacking residues 1-48); experiment: refolding chromatography, urea-denatured IGPS (49-252) on the fragment column, peak 1
[4] = target: IGPS (49-252) (indoleglycerol phosphate synthase lacking residues 1-48); experiment: refolding chromatography, urea-denatured IGPS (49-252) on the fragment column, peak 2 (refolded protein)

barnase, sequence (P00648 48-157 limits assumed): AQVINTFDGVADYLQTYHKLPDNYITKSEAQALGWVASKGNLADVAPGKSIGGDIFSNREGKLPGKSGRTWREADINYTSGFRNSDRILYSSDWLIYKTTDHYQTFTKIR

GroEL 191-345 was tested, and the C, factor by which EX2 mechanism exchange is catalysed by GroEL fragment (globally exchanging amide protons of barnase) (barnase) was 10 fold, the C, factor by which EX2 mechanism exchange is catalysed by GroEL fragment (locally exchanging amide protons of barnase) (barnase) was 5 fold and the C, factor by which EX2 mechanism exchange is catalysed by GroEL fragment (mixed amide protons of barnase) (barnase) was 1 fold.

Work on “ht-GroEL 191-345 immobilised on Ni-NTA agarose” yielded a Kav (cyclophilin A [1]) of 1.43, a Kav (cyclophilin A [2]) of 0.38 and a Kav [3] of 1. For the same substance, the Kav [4] was 1.7.
